Source: patent US20120316071A1 (published 2012)

Assays:
[1] = molecular target: T1, rHuman Notch-1/Fc Chimera, CF (R&D Systems Cat#3647-TK) (human, UniProt P46531 19-526); experiment: ECL multispot (MSD), antigen spotted; blank spot of this well 287
T1 construct: Bought protein

[2] = molecular target: T2, rHuman EGF R/Fc Chimera, CF (R&D Systems Cat#344-ER) (human, UniProt P00533 25-645); experiment: as above
T2 construct: Bought protein; also called epidermal growth factor receptor

[3] = molecular target: T3, rHuman ErbB2/Fc Chimera, CF (R&D Systems Cat#1129-ER) (human, UniProt P04626 23-652); experiment: as above
T3 construct: Bought protein; also called human epidermal growth factor 2 receptor

[4] = molecular target: T4, rHuman P-Cadherin/Fc Chimera, CF (R&D Systems Cat#861-PC) (human, UniProt P22223 108-654); experiment: as above
T4 construct: Bought protein

[5] = molecular target: T5, rHuman HGF R/c-MET/Fc Chimera, CF (R&D Systems Cat#358-MT/CF) (human, UniProt P08581 25-932); experiment: as above
T5 construct: Bought protein; also called HGF R/Fc; hepatocyte growth factor receptor

[6] = molecular target: T6, rHuman CD44/Fc Chimera, CF (R&D Systems Cat#3660-CD) (human, UniProt P16070 21-220); experiment: as above
T6 construct: Bought protein

[7] = molecular target: T7, rHuman IGF-1 sR, CF (R&D Systems Cat#391-GR) (human, UniProt P08069 31-932); experiment: as above
T7 construct: Bought soluble receptor; also called insulin-like growth factor-1 soluble receptor

[8] = molecular target: T8, Recombinant Human DLL4 (R&D Systems Cat#1506-D4/CF) (human, UniProt Q9NR61 27-524); experiment: as above
T8 construct: Bought recombinant protein; also called delta-like protein 4; rHuman DLL4

[9] = molecular target: T9, rHuman Erythropoietin R/Fc Chimera, CF (R&D Systems Cat#963-ER) (human, UniProt P19235 25-250); experiment: as above
T9 construct: Bought protein; also called EPO R; EPO R/Fc
T9 sequence (looked up): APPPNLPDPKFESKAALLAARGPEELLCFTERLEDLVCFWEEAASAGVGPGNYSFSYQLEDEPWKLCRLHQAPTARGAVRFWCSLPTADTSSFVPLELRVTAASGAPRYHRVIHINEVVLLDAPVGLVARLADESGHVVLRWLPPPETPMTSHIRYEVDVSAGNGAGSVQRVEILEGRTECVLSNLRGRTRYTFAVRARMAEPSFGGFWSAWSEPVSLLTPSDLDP

[10] = molecular target: T1, rHuman Notch-1/Fc Chimera, CF (R&D …); experiment: ECL multispot (MSD), antigen spotted; blank spot of this well 229
[11] = molecular target: T2, rHuman EGF R/Fc Chimera, CF (R&D …); experiment: as above
[12] = molecular target: T3, rHuman ErbB2/Fc Chimera, CF (R&D …); experiment: as above
[13] = molecular target: T4, rHuman P-Cadherin/Fc Chimera, CF (R&D …); experiment: as above
[14] = molecular target: T5, rHuman HGF R/c-MET/Fc Chimera, CF (R&D …); experiment: as above
[15] = molecular target: T6, rHuman CD44/Fc Chimera, CF (R&D Systems …); experiment: as above
[16] = molecular target: T7, rHuman IGF-1 sR, CF (R&D Systems …); experiment: as above
[17] = molecular target: T8, Recombinant Human DLL4 (R&D Systems …); experiment: as above
[18] = molecular target: T9, rHuman Erythropoietin R/Fc Chimera, CF …; experiment: as above
[19] = molecular target: T1, rHuman Notch-1/Fc Chimera, CF (R&D …); experiment: ECL multispot (MSD), antigen spotted; blank spot of this well 261
[20] = molecular target: T2, rHuman EGF R/Fc Chimera, CF (R&D …); experiment: as above
[21] = molecular target: T3, rHuman ErbB2/Fc Chimera, CF (R&D …); experiment: as above
[22] = molecular target: T4, rHuman P-Cadherin/Fc Chimera, CF (R&D …); experiment: as above
[23] = molecular target: T5, rHuman HGF R/c-MET/Fc Chimera, CF (R&D …); experiment: as above
[24] = molecular target: T6, rHuman CD44/Fc Chimera, CF (R&D Systems …); experiment: as above
[25] = molecular target: T7, rHuman IGF-1 sR, CF (R&D Systems …); experiment: as above
[26] = molecular target: T8, Recombinant Human DLL4 (R&D Systems …); experiment: as above
[27] = molecular target: T9, rHuman Erythropoietin R/Fc Chimera, CF …; experiment: as above

T5 sequence (P08581 25-932, change not shown): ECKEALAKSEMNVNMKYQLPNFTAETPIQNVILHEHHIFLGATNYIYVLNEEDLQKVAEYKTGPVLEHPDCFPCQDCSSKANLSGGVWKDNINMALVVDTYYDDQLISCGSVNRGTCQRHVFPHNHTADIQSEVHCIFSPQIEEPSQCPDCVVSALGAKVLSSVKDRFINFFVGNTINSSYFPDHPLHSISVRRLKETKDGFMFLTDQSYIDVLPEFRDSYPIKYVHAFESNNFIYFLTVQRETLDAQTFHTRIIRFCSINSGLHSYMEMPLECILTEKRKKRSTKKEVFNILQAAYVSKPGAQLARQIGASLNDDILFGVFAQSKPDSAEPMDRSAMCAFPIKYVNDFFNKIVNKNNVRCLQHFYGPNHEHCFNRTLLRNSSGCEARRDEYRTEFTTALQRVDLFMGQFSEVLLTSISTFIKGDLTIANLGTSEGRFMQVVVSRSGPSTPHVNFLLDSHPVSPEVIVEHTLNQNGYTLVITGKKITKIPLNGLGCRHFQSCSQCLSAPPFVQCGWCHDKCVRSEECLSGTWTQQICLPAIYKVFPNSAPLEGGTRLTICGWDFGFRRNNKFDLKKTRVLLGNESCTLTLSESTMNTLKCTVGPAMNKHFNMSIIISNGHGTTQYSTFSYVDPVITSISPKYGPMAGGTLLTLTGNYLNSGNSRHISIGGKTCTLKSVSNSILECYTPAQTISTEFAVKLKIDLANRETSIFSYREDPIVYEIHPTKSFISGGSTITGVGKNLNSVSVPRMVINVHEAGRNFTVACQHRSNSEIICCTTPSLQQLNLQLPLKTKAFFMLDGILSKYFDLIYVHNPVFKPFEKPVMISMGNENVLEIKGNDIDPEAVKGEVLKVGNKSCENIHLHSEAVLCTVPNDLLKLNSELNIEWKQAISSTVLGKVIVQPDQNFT

B1: Fab VH1-46_IGHD6-6*01_IGHJ1*01 S102A/S103P/S104F (APF) & L6_IGKJ1*01 (Fab, V domains shown)
VH: QVQLVQSGAEVKKPGASVKVSCKASGYTFTSYYMHWVRQAPGQGLEWMGIINPSGGSTSYAQKFQGRVTMTRDTSTSTVYMELSSLRSEDTAVYYCAREEYAPFSAEYFQHWGQGTLVTVSS
VL: not shown
notes: Fab made in E. coli: VH cloned into Plasmid A (CH1, His6 and Flag tags), VL into Plasmid C (kappa CL); Template of the light chain NNK mutants; also called APF / parent; H:APF & L:wt
**Q.** B1 was tested. Which ECL signal [1] did it give?
**A.** 358

**Q.** What about the ECL signal [2] of the same binder?
**A.** 226

**Q.** And the ECL signal [3]?
**A.** 317

**Q.** And the ECL signal [4]?
**A.** 250

**Q.** And the ECL signal [5]?
**A.** 344

**Q.** And the ECL signal [6]?
**A.** 205

**Q.** What about the ECL signal [7] of the same binder?
**A.** 162

**Q.** And the ECL signal [8]?
**A.** 2440

**Q.** What about the ECL signal [9] of the same binder?
**A.** 319

**Q.** And the ECL signal [10]?
**A.** 398

**Q.** And the ECL signal [11]?
**A.** 363

**Q.** What about the ECL signal [12] of the same binder?
**A.** 331

**Q.** And the ECL signal [13]?
**A.** 189

**Q.** What about the ECL signal [14] of the same binder?
**A.** 307

**Q.** And the ECL signal [15]?
**A.** 223

**Q.** And the ECL signal [16]?
**A.** 223

**Q.** What about the ECL signal [17] of the same binder?
**A.** 2580

**Q.** What about the ECL signal [18] of the same binder?
**A.** 252

B2: Fab VH1-46_IGHD6-6*01_IGHJ1*01 S102A/S103P/S104F (APF) & L6_IGKJ1*01 R91Q (Fab, V domains shown)
VH: QVQLVQSGAEVKKPGASVKVSCKASGYTFTSYYMHWVRQAPGQGLEWMGIINPSGGSTSYAQKFQGRVTMTRDTSTSTVYMELSSLRSEDTAVYYCAREEYAPFSAEYFQHWGQGTLVTVSS
VL: EIVLTQSPATLSLSPGERATLSCRASQSVSSYLAWYQQKPGQAPRLLIYDASNRATGIPARFSGSGSGTDFTLTISSLEPEDFAVYYCQQQSNWPPWTFGQGTKVEIKR
notes: Fab made in E. coli: VH cloned into Plasmid A (CH1, His6 and Flag tags), VL into Plasmid C (kappa CL); also called APF / R91Q
**Q.** What does the source list for B2?
**A.** ECL signal [19]: 229; ECL signal [20]: 290; ECL signal [21]: 234; ECL signal [22]: 314; ECL signal [23]: 325; ECL signal [24]: 268; ECL signal [25]: 210; ECL signal [26]: 817; ECL signal [27]: 263
